This is an account of results in paper PMC12318543.

Read-outs that look alike come from different tables or passages of the source.

Assay [1] concerns the target PtuA (Escherichia coli Septu system) (Escherichia coli (strain ATCC 25922)). Briefly: cryo-EM structure.
For assay [2] the target is unchanged. The assay is described as follows: cryo-EM structure. This is another data set of the same source.
Assay [3] has as its target PtuA L81R mutant (Escherichia coli (strain ATCC 25922)). The assay is described as follows: mass photometry.

Broadly, the stoichiometry N is a count of units in the complex or per binding partner.

Regarding “PtuA (Escherichia coli Septu system) (natural protein)”, the stoichiometry N in assay [1] and in assay [2] was 6 in each case.

PtuA L81R mutant (natural protein) displayed a stoichiometry N in assay [3] of 2.
